Experiments:
70S ribosomes = experiment: NMR titration
[1] = target: The RNCs, denoted FLN5+L (with L = 21 to 110); experiment: co-purification with the RNC, western blot

In the case of “FLN5 Y719E, isolated unfolded variant of FLN5 (from UniProt P13466 646-750) (domain or fragment)”, the reduction in resonance intensities with equimolar 70S ribosomes (70S ribosomes) is reported as 30%.

For “trigger factor (from UniProt P0A850 1-432) (natural protein)”, the occupancy of the purified RNCs [1] was less than 1.5%.

Work on “FLN5∆12, 12-residue C-terminal truncation of isolated FLN5 (from UniProt P13466 646-738) (domain or fragment)” yielded a reduction in resonance intensities with equimolar 70S ribosomes (70S ribosomes) of 30%.

“DnaK (from UniProt P0A6Y8 1-638) (natural protein)” gave an occupancy of the purified RNCs [1] of less than 1.5%.

From PMC5405865
